± gives the standard deviation of the averaged measurements.
What follows are sequences tested on ATP (assay: switch fluorescence ratio, 500 uM ATP over buffer (Cy3 cluster intensity, sum of 5 cycles each) (fold (ratio)); higher = stronger signal-on switching upon ATP binding; sequences stand for … in TCGTCGGCAGCGTCAGATGTGTATAAGAGACAGTTTTTTTTTTTTTTTTTTTTTTTTT…TC). Details: aptamer strand: ATP DNA aptamer (quencher-CACCTGGGGGAGTATTGCGGAGGAAGG + anchor), 100 nM annealed; ATP concentration: 500 uM.
How it was run: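 Cy3-labelled switching-strand clusters on a modified Illumina MiSeq flow-cell were annealed to 100 nM quencher-labelled ATP aptamer and imaged first in selection buffer, then after 15 min with 500 uM ATP at 22 °C. NaOH stripping and re-annealing separated each of five buffer/ATP cycles, and clusters outside 100-1000 RFU were excluded. The fluorescence ratio sums target-cycle Cy3 intensity over buffer-cycle Cy3 intensity per cluster and averages it per switch-domain sequence.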
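Also: ATP exposure 15 min at 22 °C before imaging.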

CCGGCGCGTG was tested. Which switch fluorescence ratio did it give?
Its switch fluorescence ratio is 1.06 ± 0.1.

Which switch fluorescence ratio does the source give for CCGGCGGGAG here?
Its switch fluorescence ratio is 1.099 ± 0.0064.

With CCGGCTGGGT as the sequence, how does the switch fluorescence ratio read?
The switch fluorescence ratio was 0.9584 ± 0.0069.

Which switch fluorescence ratio does the source give for CCGGGAACGC here?
Its switch fluorescence ratio is 1.29 ± 0.024.

Which switch fluorescence ratio does the source give for CCGGGAGTAC here?
Its switch fluorescence ratio is 2.14 ± 0.55.

CCGGGAGTGT was tested. Which switch fluorescence ratio did it give?
The switch fluorescence ratio was 1.12 ± 0.013.

Which switch fluorescence ratio does the source give for CCGGGCCTGC here?
The switch fluorescence ratio was 1.11 ± 0.014.

Which switch fluorescence ratio does the source give for CCGGGCGATG here?
The switch fluorescence ratio was 1.6 ± 0.1.

For CCGGGCGGAT, which switch fluorescence ratio is on record?
Its switch fluorescence ratio is 1.02 ± 0.0099.

Which switch fluorescence ratio does the source give for CCGGGGAGGT here?
Its switch fluorescence ratio is 1.06 ± 0.1.

With CCGGGGAGTC as the sequence, how does the switch fluorescence ratio read?
The switch fluorescence ratio was 1.04 ± 0.044.

Which switch fluorescence ratio does the source give for CCGGGGGGGT here?
The switch fluorescence ratio was 1.09 ± 0.077.

With CCGGGGGTCA as the sequence, how does the switch fluorescence ratio read?
Its switch fluorescence ratio is 1.01 ± 0.039.

CCGGGGTGGG was tested. Which switch fluorescence ratio did it give?
The switch fluorescence ratio was 0.9964 ± 0.0055.

Which switch fluorescence ratio does the source give for CCGGGGTGTT here?
The switch fluorescence ratio was 1.22 ± 0.3.

For CCGGGTAAAA, which switch fluorescence ratio is on record?
Its switch fluorescence ratio is 1.03 ± 0.057.

For CCGGGTAATG, which switch fluorescence ratio is on record?
Its switch fluorescence ratio is 1.27 ± 0.028.

How did the switch fluorescence ratio turn out when CCGGGTCGGG was run?
The switch fluorescence ratio was 1.006 ± 0.0049.

CCGGGTCGGT was tested. Which switch fluorescence ratio did it give?
Its switch fluorescence ratio is 0.9554 ± 0.0036.

Which switch fluorescence ratio does the source give for CCGGGTGACC here?
Its switch fluorescence ratio is 1.143 ± 0.0068.

For CCGGGTGTGG, which switch fluorescence ratio is on record?
Its switch fluorescence ratio is 1.03 ± 0.028.

Which switch fluorescence ratio does the source give for CCGGGTTTCG here?
Its switch fluorescence ratio is 0.996 ± 0.035.

How did the switch fluorescence ratio turn out when CCGGTAAGGA was run?
The switch fluorescence ratio was 0.994 ± 0.015.

With CCGGTATTGA as the sequence, how does the switch fluorescence ratio read?
The switch fluorescence ratio was 0.994 ± 0.017.

CCGGTCCCTA was tested. Which switch fluorescence ratio did it give?
Its switch fluorescence ratio is 1 ± 0.011.

With CCGGTGCGTG as the sequence, how does the switch fluorescence ratio read?
Its switch fluorescence ratio is 1.13 ± 0.14.

How did the switch fluorescence ratio turn out when CCGGTGGGGA was run?
The switch fluorescence ratio was 1.12 ± 0.064.

Which switch fluorescence ratio does the source give for CCGGTGTCTG here?
The switch fluorescence ratio was 1.05 ± 0.09.

For CCGGTTATGA, which switch fluorescence ratio is on record?
Its switch fluorescence ratio is 1.04 ± 0.02.

CCGGTTGCAT was tested. Which switch fluorescence ratio did it give?
Its switch fluorescence ratio is 4.54 ± 1.9.

Which switch fluorescence ratio does the source give for CCGGTTTTTA here?
Its switch fluorescence ratio is 0.996 ± 0.01.

CCGTAAGCAG was tested. Which switch fluorescence ratio did it give?
Its switch fluorescence ratio is 1.96 ± 0.034.

How did the switch fluorescence ratio turn out when CCGTAATTGA was run?
The switch fluorescence ratio was 2.75 ± 0.16.

With CCGTACGTTT as the sequence, how does the switch fluorescence ratio read?
Its switch fluorescence ratio is 1.24 ± 0.024.

For CCGTATAATG, which switch fluorescence ratio is on record?
The switch fluorescence ratio was 0.98 ± 0.034.

How did the switch fluorescence ratio turn out when CCGTATGTGC was run?
Its switch fluorescence ratio is 1.751 ± 0.0087.

How did the switch fluorescence ratio turn out when CCGTCAAGAG was run?
The switch fluorescence ratio was 4.35 ± 0.16.

Which switch fluorescence ratio does the source give for CCGTGAGGTG here?
The switch fluorescence ratio was 1.135 ± 0.01.

Which switch fluorescence ratio does the source give for CCGTGAGTTT here?
Its switch fluorescence ratio is 1.07 ± 0.04.

CCGTGCAGTT was tested. Which switch fluorescence ratio did it give?
Its switch fluorescence ratio is 2.12 ± 0.82.

Which switch fluorescence ratio does the source give for CCGTGGGTTT here?
Its switch fluorescence ratio is 1.059 ± 0.0031.

Which switch fluorescence ratio does the source give for CCGTGTTGCG here?
The switch fluorescence ratio was 1.01 ± 0.022.

How did the switch fluorescence ratio turn out when CCGTGTTTTT was run?
Its switch fluorescence ratio is 0.988 ± 0.032.

How did the switch fluorescence ratio turn out when CCGTTAGCGG was run?
Its switch fluorescence ratio is 1.1074 ± 0.00044.

For CCGTTATCTC, which switch fluorescence ratio is on record?
Its switch fluorescence ratio is 2.81 ± 1.

For CCGTTATTCT, which switch fluorescence ratio is on record?
The switch fluorescence ratio was 1.35 ± 0.27.

Which switch fluorescence ratio does the source give for CCGTTGTGCC here?
The switch fluorescence ratio was 1.022 ± 0.0018.

How did the switch fluorescence ratio turn out when CCGTTTCGTG was run?
Its switch fluorescence ratio is 0.9948 ± 0.0046.

For CCGTTTGCAG, which switch fluorescence ratio is on record?
The switch fluorescence ratio was 1.13 ± 0.15.

CCGTTTGGCA was tested. Which switch fluorescence ratio did it give?
Its switch fluorescence ratio is 1.15 ± 0.022.

For CCGTTTTTTG, which switch fluorescence ratio is on record?
The switch fluorescence ratio was 1 ± 0.032.

How did the switch fluorescence ratio turn out when CCTAAGAATG was run?
The switch fluorescence ratio was 1.043 ± 0.0035.

With CCTACATTG as the sequence, how does the switch fluorescence ratio read?
Its switch fluorescence ratio is 1 ± 0.02.

For CCTAGAGAGG, which switch fluorescence ratio is on record?
Its switch fluorescence ratio is 1.031 ± 0.006.

With CCTAGGGGAA as the sequence, how does the switch fluorescence ratio read?
The switch fluorescence ratio was 1.02 ± 0.022.

CCTAGTACCT was tested. Which switch fluorescence ratio did it give?
Its switch fluorescence ratio is 1.19 ± 0.05.

For CCTAGTTGAA, which switch fluorescence ratio is on record?
Its switch fluorescence ratio is 1.03 ± 0.015.

For CCTAGTTTTT, which switch fluorescence ratio is on record?
The switch fluorescence ratio was 0.997 ± 0.023.

Which switch fluorescence ratio does the source give for CCTATAAAGG here?
The switch fluorescence ratio was 1.03 ± 0.04.

With CCTATACAAC as the sequence, how does the switch fluorescence ratio read?
The switch fluorescence ratio was 1.11 ± 0.044.

How did the switch fluorescence ratio turn out when CCTATCACAA was run?
Its switch fluorescence ratio is 3.47 ± 0.46.

With CCTATCCCTG as the sequence, how does the switch fluorescence ratio read?
The switch fluorescence ratio was 1.08 ± 0.058.

CCTATGGGTT was tested. Which switch fluorescence ratio did it give?
The switch fluorescence ratio was 1.05 ± 0.015.

How did the switch fluorescence ratio turn out when CCTATTGGGG was run?
Its switch fluorescence ratio is 1.02 ± 0.037.

For CCTCAAAGCT, which switch fluorescence ratio is on record?
The switch fluorescence ratio was 1.794 ± 0.0088.

CCTCAGAGGG was tested. Which switch fluorescence ratio did it give?
The switch fluorescence ratio was 1.24 ± 0.22.

For CCTCAGGGAA, which switch fluorescence ratio is on record?
The switch fluorescence ratio was 1.2 ± 0.14.

CCTCATAGTC was tested. Which switch fluorescence ratio did it give?
The switch fluorescence ratio was 1.413 ± 0.0066.

For CCTCCCTTTT, which switch fluorescence ratio is on record?
Its switch fluorescence ratio is 2.2 ± 0.4.

CCTCGCGGGA was tested. Which switch fluorescence ratio did it give?
Its switch fluorescence ratio is 1.8 ± 0.028.

Which switch fluorescence ratio does the source give for CCTCGGACTT here?
The switch fluorescence ratio was 1.57 ± 0.48.

For CCTCGGTTTT, which switch fluorescence ratio is on record?
The switch fluorescence ratio was 1.24 ± 0.013.

With CCTCGTGTTG as the sequence, how does the switch fluorescence ratio read?
Its switch fluorescence ratio is 1.02 ± 0.022.

For CCTCGTTATT, which switch fluorescence ratio is on record?
The switch fluorescence ratio was 1.27 ± 0.027.

With CCTCTATTCT as the sequence, how does the switch fluorescence ratio read?
Its switch fluorescence ratio is 1.1 ± 0.026.

With CCTCTGATCT as the sequence, how does the switch fluorescence ratio read?
The switch fluorescence ratio was 1.38 ± 0.1.

How did the switch fluorescence ratio turn out when CCTCTGATTT was run?
The switch fluorescence ratio was 1.47 ± 0.3.

Which switch fluorescence ratio does the source give for CCTCTGGTTT here?
The switch fluorescence ratio was 2.84 ± 0.37.

Which switch fluorescence ratio does the source give for CCTGAATTAT here?
Its switch fluorescence ratio is 0.9941 ± 0.0012.

Which switch fluorescence ratio does the source give for CCTGAGGATG here?
The switch fluorescence ratio was 1.03 ± 0.015.

How did the switch fluorescence ratio turn out when CCTGAGGTGT was run?
Its switch fluorescence ratio is 1.47 ± 0.18.

Which switch fluorescence ratio does the source give for CCTGAGTGTA here?
The switch fluorescence ratio was 1 ± 0.024.

CCTGAGTTTG was tested. Which switch fluorescence ratio did it give?
Its switch fluorescence ratio is 1.01 ± 0.035.

CCTGCAGGGG was tested. Which switch fluorescence ratio did it give?
The switch fluorescence ratio was 1.094 ± 0.0051.

How did the switch fluorescence ratio turn out when CCTGCGGGGA was run?
The switch fluorescence ratio was 1.31 ± 0.29.

With CCTGGAGCGG as the sequence, how does the switch fluorescence ratio read?
Its switch fluorescence ratio is 1.19 ± 0.037.

CCTGGAGCTC was tested. Which switch fluorescence ratio did it give?
Its switch fluorescence ratio is 1.35 ± 0.02.

CCTGGAGGTT was tested. Which switch fluorescence ratio did it give?
Its switch fluorescence ratio is 0.964 ± 0.022.

With CCTGGATTTC as the sequence, how does the switch fluorescence ratio read?
The switch fluorescence ratio was 1.01 ± 0.077.

CCTGGCAAGT was tested. Which switch fluorescence ratio did it give?
Its switch fluorescence ratio is 1.87 ± 0.078.

How did the switch fluorescence ratio turn out when CCTGGCAGAG was run?
Its switch fluorescence ratio is 1.22 ± 0.048.

How did the switch fluorescence ratio turn out when CCTGGCAGCG was run?
The switch fluorescence ratio was 1.05 ± 0.03.

How did the switch fluorescence ratio turn out when CCTGGGCCGC was run?
The switch fluorescence ratio was 1.65 ± 0.081.

For CCTGGGCCGG, which switch fluorescence ratio is on record?
The switch fluorescence ratio was 1.06 ± 0.058.

CCTGGGCTGT was tested. Which switch fluorescence ratio did it give?
The switch fluorescence ratio was 1.52 ± 0.48.

With CCTGGGGGAT as the sequence, how does the switch fluorescence ratio read?
The switch fluorescence ratio was 1.75 ± 0.43.

How did the switch fluorescence ratio turn out when CCTGGGGGC was run?
The switch fluorescence ratio was 1.1 ± 0.056.

How did the switch fluorescence ratio turn out when CCTGGGGGCA was run?
The switch fluorescence ratio was 1.04 ± 0.0089.

For CCTGGGGGGA, which switch fluorescence ratio is on record?
The switch fluorescence ratio was 1.02 ± 0.059.

How did the switch fluorescence ratio turn out when CCTGTAGGTA was run?
The switch fluorescence ratio was 1.009 ± 0.0069.

From the supplement of paper PMC10126150
